Tests used:
baboon EL [1] = target: baboon EL (baboon); assay: cell-based or functional assay
rabbit EL = rabbit EL (rabbit); assay: cell-based or functional assay
mouse EL [2] = target: T1, mouse EL (mouse, UniProt Q9WVG5 21-500); assay: cell-based or functional assay
T1 sequence (looked up): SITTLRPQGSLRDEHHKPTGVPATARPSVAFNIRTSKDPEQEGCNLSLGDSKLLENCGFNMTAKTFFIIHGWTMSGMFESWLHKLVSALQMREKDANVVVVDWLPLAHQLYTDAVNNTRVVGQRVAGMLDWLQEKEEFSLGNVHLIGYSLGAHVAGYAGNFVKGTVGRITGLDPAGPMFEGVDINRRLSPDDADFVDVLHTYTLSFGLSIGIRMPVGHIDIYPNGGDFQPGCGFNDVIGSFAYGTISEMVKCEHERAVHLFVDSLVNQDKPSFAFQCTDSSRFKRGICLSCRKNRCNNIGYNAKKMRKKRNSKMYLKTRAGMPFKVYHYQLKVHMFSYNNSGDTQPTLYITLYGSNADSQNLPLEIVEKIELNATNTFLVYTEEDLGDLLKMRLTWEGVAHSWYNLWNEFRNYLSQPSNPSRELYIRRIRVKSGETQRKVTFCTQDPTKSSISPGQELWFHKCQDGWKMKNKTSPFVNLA

[3] = target: T2, human [1-305]-mouse chimeric EL (human; mouse, UniProt Q9WVG5 306-500); assay: cell-based or functional assay
T2 sequence: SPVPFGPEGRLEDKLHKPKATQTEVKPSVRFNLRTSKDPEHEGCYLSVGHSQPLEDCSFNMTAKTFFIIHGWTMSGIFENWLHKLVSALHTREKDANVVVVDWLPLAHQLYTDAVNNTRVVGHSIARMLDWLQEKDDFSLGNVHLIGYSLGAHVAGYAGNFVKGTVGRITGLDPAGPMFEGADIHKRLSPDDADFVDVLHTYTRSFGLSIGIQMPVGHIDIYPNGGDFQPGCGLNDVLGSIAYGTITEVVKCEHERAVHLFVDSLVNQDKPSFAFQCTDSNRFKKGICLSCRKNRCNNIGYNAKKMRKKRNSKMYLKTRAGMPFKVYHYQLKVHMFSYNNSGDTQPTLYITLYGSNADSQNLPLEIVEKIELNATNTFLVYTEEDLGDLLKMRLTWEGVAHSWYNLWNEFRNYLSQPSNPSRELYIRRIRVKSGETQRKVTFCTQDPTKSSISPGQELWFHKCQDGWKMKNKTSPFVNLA

baboon EL [4] = target: T3, baboon EL (baboon); assay: Biacore (as for the other anti-EL antibodies)
T3 construct: Heparin extract

mouse EL [5] = target: T1, mouse EL; assay: Biacore (as for the other anti-EL antibodies)
[6] = target: T2, human [1-305]-mouse chimeric EL; assay: Biacore (as for the other anti-EL antibodies)
Chimeric EL [187-500] = target: T4, Chimeric EL [187-500] (mouse;human); assay: ELISA: antibody captured on anti-mouse IgG-Fc plate, EL heparin extract added, detection with biotin anti-C2-tag antibody and HRP-streptavidin, A450
T4 construct: construct not described further; Used as heparin extract and detected through anti-C2-tag antibody; also called human (187-500) mouse chimera EL

baboon EL [7] = target: T3, baboon EL; assay: as above
[8] = target: T2, human [1-305]-mouse chimeric EL; assay: as above

B1: 16F6 (antibody, V domains shown)
VH: QVQLQQSGAELMKPGASVKISCKATGYTFSTYWIAWVKQRPGHGLEWIGEILPGSAKTKYNKKFKGKATFTADTSSNTAYMQLSSLTSEDSAVYYCAVYDYGADYWGQGTSVTVSS
VL: DIVMTQSHKFMSTSVGDRVSITCKASQDVYTAVAWYQQKPGQSPKLLIYSASYRFTGVPDRFTGSGAGTEFTFTINSVQAEDLAVYYCQQHYSIPRTFGGGTKLEIK
notes: mouse IgG1 raised in EL knock-out mice; not tied one by one
Baboon EL [1]
  Neutralizing activity IC50: 2.8 nM
Rabbit EL
  Neutralizing activity IC50: 2.3 nM
Mouse EL [2]
  Neutralizing activity IC50: 2.5 nM
[3]
  Neutralizing activity IC50: 4 nM
Baboon EL [4]
  Kd: 0.42 nM
  koff: 0.0001 s⁻¹
  kon: 240000 M⁻¹ s⁻¹
Mouse EL [5]
  Kd: 0.68 nM
  koff: 0.00015 s⁻¹
  kon: 220000 M⁻¹ s⁻¹
[6]
  Kd: 14 nM
  koff: 0.004 s⁻¹
  kon: 330000 M⁻¹ s⁻¹
Chimeric EL [187-500]
  EC50 (read off the curve): ~0.02 µg/mL
Baboon EL [7]
  EC50 (read off the curve): ~0.02 µg/mL
[8]
  EC50 (read off the curve): ~0.002 µg/mL

Source: patent publication US20200071424A1 (SHIONOGI, published 2020)
